According to patent US20180044383A1 (ALBERT EINSTEIN COLLEGE OF MEDICINE, published 2018):
Positions count from the first letter of the chain named. Each block holds one molecule with its values, some of them ahead of it.

Assays:
[1] = target: FKBP fused to miRFP-GAF709 (UniProt P62942); assay: cell-based or functional assay
[2] = target: FKBP fused to miRFP-GAF670 (UniProt P62942); assay: cell-based or functional assay
[3] = target: the molecule itself; assay: sedimentation velocity analytical ultracentrifugation in PBS at 20 C, self-association (no dimer)
Procedure: FIG. 11A-11B. Monomeric state of miRFPs confirmed by analytical ultracentrifugation analysis. miRFPs from each family of miRFPs were analyzed by sedimentation velocity analytical ultracentrifugation. miRFP670 represents miRFP proteins derived from RpBphP1; miRFP670-2 represents monomerized iRFP670 and iRFP702 derived from RpBphP6; miRFP720 represents monomerized iRFP682, iRFP713, and iRFP720 derived from RpBphP2. The proteins were analyzed at concentrations of 15 μM in PBS buffer at 20° C., the time-derivative method was used. (a) Overlay of the sedimentation coefficient distributions for iRFP670-2 (blue), iRFP713 (red), miRFP720 (magenta), and miRFP670 (cyan). (b) Overlay of the normalized best-fit sedimentation coefficient distributions. (c) The residuals corresponding to the resolved fits shown in (b).
Analytical ultracentrifugation was conducted at 20° C. and 58,000 r.p.m. with anOptima XL-I centrifuge (Beckman Coulter) using the AN-60Ti rotor and the absorption optics set to 645 nm. Sednterp v.20120828beta software was used to calculate the partial specific volume of the proteins from their sequence and the density and viscosity of the buffers. The sedimentation parameters were corrected to standard conditions (20,w) using these values. […]

[4] = target: T1, miRFP-GAF709; assay: bimolecular fluorescence complementation in HeLa cells (fragments as FRB and FKBP fusions, rapamycin-induced)
T1 construct: Split fragment; in the experiments it stood as a fusion (to FKBP or PCP); also called GAF fragment of miSplit709
T1 chain: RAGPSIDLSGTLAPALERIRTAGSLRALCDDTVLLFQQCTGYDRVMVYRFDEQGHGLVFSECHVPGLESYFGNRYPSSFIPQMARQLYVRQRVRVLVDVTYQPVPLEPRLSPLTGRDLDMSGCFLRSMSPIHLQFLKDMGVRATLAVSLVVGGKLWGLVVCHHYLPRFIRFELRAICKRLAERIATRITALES
Procedure: (§1) The two mSplits share the same miRFP-PAS fragment that can interact with either miRFP-GAF670 or miRFP-GAF709 fragments producing the fluorescence signal corresponding to complemented miSplit670 or miSplit709, respectively. (b, c) Brightness and complementation contrast of miSplit670 (b) and miSplit709 (c) in live HeLa cells. HeLa cells were transiently transfected with the plasmids encoding the indicated proteins. Rapamycin (Rapa) was added where indicated. The mean fluorescence intensities of cells were analyzed by flow cytometry. Error bars, s.d. (n=3; transfection experiments). (d) Two-color imaging of two alternative PPIs in one cell. […] MCP and PCP are fused with two fragments of mi Split reporter. mRNA serves as a scaffold to bring two split fragments together and reconstitute fluorescence. […] The mean fluorescence intensities of cells were analyzed by flow cytometry. […] (g) Representative images of live HeLa cells analyzed in (f). […]
(§2) We first characterized miSplits using a rapamycin-induced PPI of FRB and FKBP proteins. We fused FRB to the miRFP-PAS domain and FKBP to either miRFP-GAF670 or miRFP-GAF709 domains and tested their effective brightness and BiFC contrast (the ratio between a stimulus-induced fluorescence signal and a fluorescence signal originated from non-specific complementation) in mammalian cells.

[5] = target: T2, miRFP-GAF670; assay: as above
T2 construct: Split fragment; in the experiments it stood as a fusion (to FKBP or PCP); also called GAF fragment of miSplit670
T2 chain: T1 chain with F79T, I80V, I131C
Procedure: as §1, §2

[6] = target: the molecule itself; assay: size exclusion chromatography, self-association (no dimer)
Excerpt: As a result, we have obtained miRFP670 (excitation/emission at 642 nm/670 nm) having Cys in the GAF domain and its dimmer version miRFP670v1 (Table 1). By changing Cys back to Ile and mutating residues 201 and 202, we found two red-shifted variants, miRFP703 (excitation/emission at 673 nm/703 nm) and miRFP709 (excitation/emission at 686 nm/709 nm) (Table 1). […] Absorbance of miRFPs was characterized by small side peaks at 280 nm (protein absorbance) and 390 nm (so called Soret band common to all tetrapyrrole compounds) and by large main peaks at 644 nm, 676 nm and 685 nm, indicative of the efficient BV incorporation. Monomeric states of miRFPs was confirmed by a size exclusion chromatography at 1 mg/ml as well as at concentrations as high as 30 mg/ml (FIG. 1d).
To perform size exclusion liquid chromatography a 2 ml volume of purified miRFPs was applied on the HiLoad 16/600 Superdex 200 column (GE Healthcare) equilibrated with 10 mM Hepes buffer pH 7.4 containing 50 μM EDTA, 10% glycerol, 150 mM NaCl, 1 mM DTT, 0.2 mM PMSF, 0.01% EP-40 and 0.2 mM […]. A 1 ml/min flow rate was used. The column was calibrated using the gel filtration standards (Bio-Rad Laboratories).

BiFC contrast 0.5 h after rapamycin addition [1]: 2 fold | BiFC contrast (the ratio between a stimulus-induced fluorescence signal and a fluorescence signal originated from non-specific complementation), miSplit709, HeLa cells, flow cytometry, 50 nM rapamycin [1]: > 20 fold | effective brightness of the complemented miSplit709 relative to parental full-length miRFP [1]: > 40% | BiFC contrast 0.5 h after rapamycin addition [2]: 2 fold | BiFC contrast (the ratio between a stimulus-induced fluorescence signal and a fluorescence signal originated from non-specific complementation), miSplit670, HeLa cells, flow cytometry, 50 nM rapamycin [2]: > 20 fold | effective brightness of the complemented miSplit670 relative to parental full-length miRFP [2]: > 40%
Molecule: FRB fused to miRFP-PAS (from UniProt P42345 2021-2113)

B1: miRFP670-2 (other)
chain: MARKVDLTSCDREPIHIPGSIQPCGCLLACDAQAVRITRITENAGAFFGRETPRVGELLADYFGETEAHALRNALAQSSDPKRPALIFGWRDGLTGRTFDISLHRHDGTSIIEFEPAAAEQADNPLRLTRQIIARTKELKSLEEMAARVPRYLQAMLGYHRVMLYRFADDGSGMVIGEAKRSDLESFLGQHFPASLVPQQARLLYLKNAIRVVSDSRGISSRIVPEHDASGAALDLSFAHLRSISPCHLEFLRNMGVSASMSLSIIIDGTLWGLIICHHYEPRAVPMAQRVAAKRFAERLSTHFTAAHHQR
modifications: biliverdin (BV) chromophore
notes: Monomerized version of dimeric iRFP670 (derived from RpBphP6); also called monomerized iRFP670
binding result [3]: no binding (tested: 15 µM)

binding result [4]: binds | binding result [5]: binds
B2: miRFP-PAS (other)
chain: MVAGHASGSPAFGTASHSNCEHEEIHLAGSIQPHGALLVVSEHDHRVIQASANAAEFLNLGSVLGVPLAEIDGDLLIKILPHLDPTAEGMPVAVRCRIGNPSTEYCGLMHRPPEGGLIIELERAGP
notes: Split fragment; in the experiments it stood as a fusion (to FRB or to MCP); also called miRFP670-PAS domain; PAS fragment of miSplit670 and miSplit709

B3: miRFP720 (other)
chain: MAEGSVARQPDLLTCDDEPIHIPGAIQPHGLLLALAADMTIVAGSDNLPELTGLAIGALIGRSAADVFDSETHNRLTIALAEPGAAVGAPITVGFTMRKDAGFIGSWHRHDQLIFLELEPPQRDVAEPQAFFRRTNSAIRRLQAAETLESACAAAAQEVRKITGFDRVMIYRFASDFSGSVIAEDRCAEVESKLGLHYPASFIPAQARRLYTINPVRIIPDINYRPVPVTPDLNPVTGRPIDLSFAILRSVSPNHLEFMRNIGMHGTMSISILRGERLWGLIVCHHRTPYYVDLDGRQACKRVAERLATQIGVMEE
modifications: biliverdin (BV) chromophore
notes: Monomerized version of dimeric iRFP720 (derived from RpBphP2); also called monomerized iRFP720
binding result [3]: no binding (tested: 15 µM)

B4: miRFP670 (other)
chain: MVAGHASGSPAFGTASHSNCEHEEIHLAGSIQPHGALLVVSEHDHRVIQASANAAEFLNLGSVLGVPLAEIDGDLLIKILPHLDPTAEGMPVAVRCRIGNPSTEYCGLMHRPPEGGLIIELERAGPSIDLSGTLAPALERIRTAGSLRALCDDTVLLFQQCTGYDRVMVYRFDEQGHGLVFSECHVPGLESYFGNRYPSSTVPQMARQLYVRQRVRVLVDVTYQPVPLEPRLSPLTGRDLDMSGCFLRSMSPCHLQFLKDMGVRATLAVSLVVGGKLWGLVVCHHYLPRFIRFELRAICKRLAERIATRITALES
modifications: biliverdin (BV) chromophore; filing says miRFP670 has the BV-binding Cys in the GAF domain (-PIH- motif Ile replaced by Cys)
notes: Monomeric near-infrared fluorescent protein engineered from the PAS-GAF domains of RpBphP1; also called mRFP670
binding result [6]: no binding (tested: 30 mg/ml)

B5: miRFP703 (other)
chain: B4 chain with T201L, C253I
modifications: biliverdin (BV) chromophore bound to the conserved Cys residue in the PAS domain
notes: Engineered from RpBphP1 PAS-GAF
binding result [6]: no binding (tested: 30 mg/ml)

B6: miRFP709 (other)
chain: B4 chain with T201F, V202I, C253I
modifications: biliverdin (BV) chromophore bound to the conserved Cys residue in the PAS domain
notes: as for B5
binding result [6]: no binding (tested: 30 mg/ml)
